# From patent publication US20130039916A1 (Merck Sharp & Dohme, published 2013)
# Where “and” joins values, the source holds several entries; their conditions need not be identical. Equal entries are not always repeated.
# T1: "Non-linked" human IL-23 (human p40 coexpressed in 293T cells with human p19:FLAG-tag peptide) (human, UniProt P29460 23-328)
# T1 sequence 1: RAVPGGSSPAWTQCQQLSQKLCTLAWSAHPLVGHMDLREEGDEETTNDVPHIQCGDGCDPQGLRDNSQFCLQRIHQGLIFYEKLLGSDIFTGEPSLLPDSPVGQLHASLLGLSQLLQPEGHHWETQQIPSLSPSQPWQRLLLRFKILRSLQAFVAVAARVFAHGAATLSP
# T1 sequence 2: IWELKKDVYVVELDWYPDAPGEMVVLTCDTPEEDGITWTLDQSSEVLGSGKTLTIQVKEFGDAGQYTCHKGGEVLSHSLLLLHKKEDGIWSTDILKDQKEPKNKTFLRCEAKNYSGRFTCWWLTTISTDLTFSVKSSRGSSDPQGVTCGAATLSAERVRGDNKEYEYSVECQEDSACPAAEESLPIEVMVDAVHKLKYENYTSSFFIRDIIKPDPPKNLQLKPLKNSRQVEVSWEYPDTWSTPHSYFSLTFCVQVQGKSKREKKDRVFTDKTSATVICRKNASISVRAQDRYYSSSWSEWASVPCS
# T2: non-tagged, non-linked native human IL-23p19/p40 coexpressed in SF9 cells (eBioscience CAT No. 34-8239) (human, UniProt P29460 23-328)
# T2 sequence 1: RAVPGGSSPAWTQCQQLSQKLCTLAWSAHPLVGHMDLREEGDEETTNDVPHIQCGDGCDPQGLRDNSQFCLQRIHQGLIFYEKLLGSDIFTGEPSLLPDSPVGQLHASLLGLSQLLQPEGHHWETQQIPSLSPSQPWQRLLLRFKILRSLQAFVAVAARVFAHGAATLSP
# T2 sequence 2: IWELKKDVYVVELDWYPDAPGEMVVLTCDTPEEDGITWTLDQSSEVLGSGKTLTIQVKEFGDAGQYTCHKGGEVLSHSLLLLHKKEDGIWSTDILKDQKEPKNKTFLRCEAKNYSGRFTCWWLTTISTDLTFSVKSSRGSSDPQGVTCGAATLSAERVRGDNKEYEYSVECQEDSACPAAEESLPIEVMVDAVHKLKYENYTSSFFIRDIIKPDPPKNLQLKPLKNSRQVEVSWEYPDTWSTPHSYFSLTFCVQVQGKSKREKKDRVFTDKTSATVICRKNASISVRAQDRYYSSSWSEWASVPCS
# T3: human IL-23 (form not stated) (human, UniProt P29460 23-328)
# T3 sequence 1: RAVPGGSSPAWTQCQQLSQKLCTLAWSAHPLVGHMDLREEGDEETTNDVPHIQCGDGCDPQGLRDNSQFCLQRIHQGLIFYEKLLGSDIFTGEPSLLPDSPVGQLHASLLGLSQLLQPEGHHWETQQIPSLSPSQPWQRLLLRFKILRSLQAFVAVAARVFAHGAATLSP
# T3 sequence 2: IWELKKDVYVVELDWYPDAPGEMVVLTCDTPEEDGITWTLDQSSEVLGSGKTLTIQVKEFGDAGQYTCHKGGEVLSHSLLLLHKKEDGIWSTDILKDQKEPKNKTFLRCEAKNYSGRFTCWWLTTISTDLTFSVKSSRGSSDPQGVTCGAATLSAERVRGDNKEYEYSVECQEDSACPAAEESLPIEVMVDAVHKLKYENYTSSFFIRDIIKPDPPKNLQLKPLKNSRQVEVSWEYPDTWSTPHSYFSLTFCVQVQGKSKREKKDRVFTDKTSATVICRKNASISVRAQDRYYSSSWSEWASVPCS
# T4: "N222Q" human IL-23 (elastikine sequence with Asn222 to Gln in the p40 subunit, expressed in SF9 cells) (human, UniProt P29460 23-328)
# T4 chain 1: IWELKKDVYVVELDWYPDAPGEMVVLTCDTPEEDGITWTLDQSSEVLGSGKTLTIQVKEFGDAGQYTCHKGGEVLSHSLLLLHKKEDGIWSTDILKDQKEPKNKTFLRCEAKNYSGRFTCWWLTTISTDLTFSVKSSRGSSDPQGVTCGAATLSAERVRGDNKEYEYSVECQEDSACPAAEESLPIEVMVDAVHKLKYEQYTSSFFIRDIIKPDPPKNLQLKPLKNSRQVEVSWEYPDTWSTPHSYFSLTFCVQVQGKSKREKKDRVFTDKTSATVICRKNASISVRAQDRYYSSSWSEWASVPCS
# T4 chain 2: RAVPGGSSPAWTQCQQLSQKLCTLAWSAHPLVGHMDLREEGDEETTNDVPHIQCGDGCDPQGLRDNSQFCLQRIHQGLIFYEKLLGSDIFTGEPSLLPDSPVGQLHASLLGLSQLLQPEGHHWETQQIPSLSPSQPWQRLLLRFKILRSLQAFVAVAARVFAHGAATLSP
# Experiments:
# [1] = target: T5, "Elastikine" human IL-23 (single chain FLAG-tag:GLU-tag:human p40:elasti-linker:human p19, expressed in 293T … (human, UniProt P29460 23-328)); test: cell-based or functional assay
# [2] = target: T1, "Non-linked" human IL-23 (human p40 …); test: cell-based or functional assay
# [3] = target: T2, non-tagged, non-linked native human …; test: cell-based or functional assay
# [4] = target: T2, non-tagged, non-linked native human …; test: BIAcore SPR, antibody immobilised on CM5 chip, IL-23 in solution
# Procedure: (§1) BIAcore determinations are performed essentially as described at Example 4 of U.S. Patent Application Publication No. 2007/0048315. Briefly, ligands (anti-IL-23 mAbs) are immobilized on a BIAcore CM5 sensor chip using standard amine-coupling procedure. IL-23 (various forms) is diluted in PBS to produce various concentrations. Kinetic constants for the various interactions are determined using BIAevaluation software 3.1. The Kd is determined using the calculated dissociation and association rate constants. In certain experiments, proteins are used at the following concentrations: anti-IL-23 mAb hu7G10 in PBS at 0.33 mg/mL; anti-IL-23 mAb hu6H12 in PBS at 0.2 mg/mL; bac-wt human IL-23 in PBS at 0.30 mg/mL; eBioscience human IL-23 in PBS at 0.10 mg/mL; N222Q human IL-23 in PBS at 0.33 mg/mL.
# [5] = target: T3, human IL-23 (form not stated); test: cell-based or functional assay
# [6] = target: T5, "Elastikine" human IL-23 (single chain …); test: KinExA, solution equilibrium
# Procedure: (§2) The equilibrium dissociation constant (Kd) for anti human IL-23 antibodies is determined using the KinExA 3000 instrument. Sapidyne Instruments Inc., Boise Id., USA KinExA uses the principle of the Kinetic Exclusion Assay method based on measuring the concentration of uncomplexed antibody in a mixture of antibody, antigen and antibody-antigen complex. The concentration of free antibody is measured by exposing the mixture to a solid-phase immobilized antigen for a very brief period of time. In practice, this is accomplished by flowing the solution phase antigen-antibody mixture past antigen-coated particles trapped in a flow cell. Data generated by the instrument are analyzed using custom software. Equilibrium constants are calculated using a mathematical theory based on the following assumptions:
# (§3) 98 micron PMMA particles (Sapidyne, Cat No. 440198) are coated with biotinylated rhIL-23 according to Sapidyne “Protocol for coating PMMA particles with biotinylated ligands having short or nonexistent linker arms”. To make biotinylated rhIL-23, EZ-link TFP PEO-biotin (Pierce, Cat. No. 21219) is used according to manufacturer's recommendations (Pierce bulletin 0874). Experimental procedures are done according to the KinExA 3000 manual.
# (§4) KinExA experiments are performed essentially as described at Example 3 of U.S. Patent Application Publication No. 2007/0048315.
# [7] = target: T4, "N222Q" human IL-23 (elastikine …); test: BIAcore SPR, antibody immobilised on CM5 chip, IL-23 in solution
# Procedure: as §1
# [8] = target: T6, "Elastikine" human IL-23 (single chain FLAG-tag:GLU-tag:human p40:elasti-linker:human p19, expressed in 293T … (human, UniProt P29460 23-328)); test: cell-based or functional assay; remark: listed apart in the source
# [9] = target: T6, "Elastikine" human IL-23 (single chain …); test: KinExA, solution equilibrium
# Procedure: as §2, §3, §4
# [10] = target: T1, "Non-linked" human IL-23 (human p40 …); test: KinExA, solution equilibrium
# Procedure: as §2, §3, §4
# [11] = target: T2, non-tagged, non-linked native human …; test: KinExA, solution equilibrium
# Procedure: as §2, §3, §4
"IC50 (pM), blocking of Ba/F3 cell proliferation [1]","IC50 (pM), blocking of Ba/F3 cell proliferation [2]","IC50 (pM), blocking of Ba/F3 cell proliferation [3]",Kd [4],fold decrease of IC50 in the Ba/F3 proliferation bioassay against the heavy chain of SEQ ID NO: 129 without R98A [5],Kd [6],Kd [7],"IC50 (pM), blocking of Ba/F3 cell proliferation [8]",Kd [9],Kd [10],Kd [11],Binder
29 pM,10000 pM,7800 pM,3.2 nM and 9 nM,–,–,–,–,–,–,–,"humanized anti-human IL-23p19 antibody 7G10 (antibody, human IgG1, kappa, V domains shown, Full-length humanized antibody, human IgG1 / kappa; also called hu7G10; hum7G10) VH: QVQLVQSGAEVKKPGASVKVSCKASGYTFTSNVMHWVRQAPGQGLEWMGYINPYNDGTKYNEKFKGRVTMTTDTSTSTAYMELRSLRSDDTAVYYCARNWDVAYWGQGTLVTVSS VL: DIQMTQSPSSLSASVGDRVTITCRASQSISDYLHWYQQKPGKAPKLLIYYASQSISGVPSRFSGSGSGTDFTLTISSLQPEDFATYYCQNGHSFPFTFGQGTKVEIKR"
–,–,–,–,> 1000 fold,–,–,–,–,–,–,"humanized antibody 17G8 with R98A substitution in the heavy chain of SEQ ID NO: 129 (antibody, V domains shown) VH: QVQLVQSGAEVKKPGASVKVSCKASGYTFTSYGIKWVRQAPGQGLEWMGEIFPRSGQTIYNEKFKGRVTMTTDTSTSTAYMELRSLRSDDTAVYYCAANWDLDYWGQGTLVTVSS VL: DIQMTQSPSSLSASVGDRVTITCRASQSISDYLHWYQQKPGKAPKLLIYYASQSISGVPSRFSGSGSGTDFTLTISSLQPEDFATYYCQNGHSFPYTFGQGTKVEIKR"
27 pM,4000 pM,3200 pM,4.1 nM,–,0.028 nM and 0.036 nM,0.5 nM,–,–,–,–,"humanized anti-human IL-23p19 antibody 6H12 (antibody, human IgG1, kappa, V domains shown, Full-length humanized antibody, human IgG1 / kappa; also called hu6H12; hum6H12) VH: QVQLVQSGAEVKKPGASVKVSCKASGYTFNRYLIHWVRQAPGQGLEWMGYINPNNAGTNYNEKFKGRVTMTTDTSTSTAYMELRSLRSDDTAVYYCARNWDQAYWGQGTLVTVSS VL: DIQMTQSPSSLSASVGDRVTITCRASQSISDYLHWYQQKPGKAPKLLIYYTSQSISGVPSRFSGSGSGTDFTLTISSLQPEDFATYYCQNGHSFPFTFGQGTKVEIKR"
–,1500 pM,1300 pM and 500 pM,–,–,–,–,11 pM and 9 pM,0.054 nM and 0.048 nM,> 1.2 nM,> 1 nM,"mouse anti-human IL-23p19 antibody 6H12 (antibody, V domains shown, also called m6H12) VH: EVHLQQSGPELVKPGASVKMSCKASGYTFNRYLIHWVKQKPGQGLEWIGYINPNNDGTNYNEKFKGKATLTSDKSSSTAYMELSSLTSEDSAVYYCAANWDQAYWGQGTLVTVSA VL: DIVMTQSPATLSVTPGDRVSLSCRASQSISDYLHWYQQKSHESPRLLIKYTSQSISGIPSRFSGSGSGSDFTLSINSVEPEDVGVYYCQNGHSFPFTFGSGTKLEIKR"
–,113 pM,31 pM,–,–,–,–,7 pM and 5 pM,0.022 nM,–,0.055 nM,"mouse anti-human IL-23p19 antibody 13B5 (antibody, V domains shown, also called m13B5) VH: EVQLQQSGPELVKPGASVKMSCKASGYTFTRYLMHWVKQKPGQGLEWIGYINPYNDGTNYNEKFKGKATLTSDKSSSTAYMELSSLTSEDSAVYYCARNWDVGGYWGQGTTLTVSS VL: DIVMTQSPATLSVTPGDRVSLSCRASQSISDYLHWYQQKSHESPRLLIKYASQSISGIPSRFSGSGSGSDFTLSINSVEPEDVGVYYCQNGHSFPFTFGSGTKLEIKR"
–,67 pM,11 pM,–,–,–,–,9 pM and 5 pM,0.019 nM,0.034 nM,0.62 nM,"mouse anti-human IL-23p19 antibody 39G2 (antibody, V domains shown, also called m39G2) VH: QVQLQQPGAELVRPGASVKLSCKASGYSFTSSWMNWVKQRPGQGLEWIGMIHPSDSETRTNQKFKDKATLTVDKSSSTAYMQLSSPTSEDSAVYYCARGMITAPTVYWGQGTLVTVSA VL: DIVLTQSPASLAVSLGQRATISCRASKSVSTSAYSYFHWYQQKPGQPPKLLIYLASNLESGVPARFSGSGSGTDFTLNIHPVEEEDAATYYCQHSRELPWTFGGGTKLEITP"
–,73 pM,12 pM,–,–,–,–,15 pM and 5 pM,0.053 nM,–,> 0.7 nM,"mouse anti-human IL-23p19 antibody 35F12 (antibody, V domains shown, also called m35F12) VH: QVQLQQPGAELMRPGASVRLSCKASGYSFTTSWMNWVKQRPGQGLEWIGMIHPSDSETRLNQNFKDKATLTVDRSSSTAYMQLNSPTSEDSAVYYCARGMITAPSVYWGQGTLVTVSA VL: DIVLTQSPASLAVSLGQRATISCRASKSVSTSAYSYFHWYQQKPGQPPKLLIYLASNLESGVPARFSGSGSGTDFTLNIHPVEEGDAATYYCQHSRELPWTFGGGTKLEITR"
